In paper PMC5019495 (Nature, 2016):
Positions count from the first letter of the chain named. Numbers in names are those of the source. Like-named read-outs stand apart in the source and are kept apart here.

Tests used:
[1] = target: T1, yeast E2 Ubc9 (wild type) (yeast, UniProt P50623 1-157); assay: fluorescence polarisation
T1 sequence (looked up): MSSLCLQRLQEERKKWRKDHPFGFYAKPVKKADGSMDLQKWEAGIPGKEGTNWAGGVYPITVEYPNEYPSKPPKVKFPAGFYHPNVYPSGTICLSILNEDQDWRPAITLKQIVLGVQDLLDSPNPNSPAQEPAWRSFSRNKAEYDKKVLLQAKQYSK

[2] = target: T2, yeast E3 active fragment Siz1^(167–465) (yeast, UniProt Q04195 167-465); assay: competitive inhibition of multiple turnover SUMO conjugation
T2 sequence (looked up): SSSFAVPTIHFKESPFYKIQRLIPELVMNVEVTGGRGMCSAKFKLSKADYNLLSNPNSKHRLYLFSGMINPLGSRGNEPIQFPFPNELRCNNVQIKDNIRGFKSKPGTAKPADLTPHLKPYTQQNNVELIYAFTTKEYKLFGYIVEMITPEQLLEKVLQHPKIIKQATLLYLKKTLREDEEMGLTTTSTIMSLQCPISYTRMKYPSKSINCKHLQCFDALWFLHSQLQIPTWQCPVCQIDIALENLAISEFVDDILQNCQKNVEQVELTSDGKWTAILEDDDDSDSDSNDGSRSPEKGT

[3] = target: T2, yeast E3 active fragment Siz1^(167–465); assay: as above; remark: listed apart in the source

B1: Smt3^K11C-Alexa488 (natural protein)
chain: SDSEVNQEACPEVKPEVKPETHINLKVSDGSSEIFFKIKKTTPLRRLMEAFAKRQGKEMDSLRFLYDGIRIQADQTPEDLDMEDNDIIEAHREQIGG
modifications: Alexa Fluor 488 maleimide on Cys11
[1]
  Kd: 24.6 nM

B2: Ubc9^C93K-Smt3 thioester mimetic (complex)
chain 1: T1 sequence (looked up) with C93K
chain 2: B1 chain with C10K
modifications: Lys93 linked to the C-terminus of Smt3 (stable peptide bond) | C-terminus linked to Lys93 of Ubc9
[2]
  Ki: 1440 nM
[3]
  Ki: 2050 nM

B3: Ubc9^A129K/K153R-Smt3 thioester mimetic (complex)
chain 1: T1 sequence (looked up) with A129K, K153R
chain 2: B1 chain with C10K
modifications: Lys129 linked to the C-terminus of Smt3 | C-terminus linked to Lys129 of Ubc9
[2]
  Ki: 3150 nM
[3]
  Ki: 4330 nM
